According to US20220387586A1:

What was measured:
[1] = target: cynomolgus LAG3 on cells (cynomolgus); experiment: flow cytometry on activated cynomolgus PBMC, 10 µg/ml; control (only 2nd Ab (hu): 7.62)
[2] = target: human Fc tagged human Lag3 extra cellular domain (human) (UniProt P18627); experiment: FACS, inhibition of biotinylated Lag3:Fc binding to MHC-II on A375 cells (competitor MHC-II); control at 10 µg/ml
Chain of human Fc tagged human Lag3 extra cellular domain (human) (P18627 29-450): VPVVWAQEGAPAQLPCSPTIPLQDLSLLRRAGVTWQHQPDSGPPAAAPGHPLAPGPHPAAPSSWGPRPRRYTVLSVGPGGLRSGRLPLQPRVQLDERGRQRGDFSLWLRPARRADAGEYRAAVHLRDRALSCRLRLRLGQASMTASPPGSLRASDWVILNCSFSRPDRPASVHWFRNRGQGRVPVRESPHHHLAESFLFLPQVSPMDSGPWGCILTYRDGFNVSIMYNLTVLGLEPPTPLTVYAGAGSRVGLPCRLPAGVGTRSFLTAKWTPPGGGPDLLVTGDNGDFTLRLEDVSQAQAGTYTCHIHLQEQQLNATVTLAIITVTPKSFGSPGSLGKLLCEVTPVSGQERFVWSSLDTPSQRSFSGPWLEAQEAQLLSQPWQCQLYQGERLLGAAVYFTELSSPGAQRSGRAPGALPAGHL

| % positive cyno cells (PBLs) after CD3/CD28 activation [1] [%] | % Inhibition [2] [%] | Substance |
| --- | --- | --- |
| 9.19 |  | DP47 (human isotype) (antibody) |
|  | -2.9 | human IgG1 isotype control (Sigma, cat.no. #I5154) (antibody) |
